{"source": "the nanobody polyreactivity screen of Harvey et al. (2022)", "data": [{"assay": "yeast display, Sf9 membrane polyspecificity reagent, FACS + sequencing; frameworks hold sequencing errors", "how_it_was_run": "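Galactose induction of a Saccharomyces cerevisiae BJ5465 synthetic nanobody display library ran 36–48 hours. The cells were then stained for 1 hour at 4 °C with 10% biotinylated, detergent-solubilized Sf9 membrane reagent, pulled down on streptavidin microbeads and FACS-sorted into low and high (top ~1%) gates on expression and reagent-binding fluorescence. Labels for polyreactivity follow the gate of origin.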", "values": [{"sequence": "QVQLVESGGGLVQAGGSLRLSCAASGLTFYYYAMGWYRQSPGKEREFVAAISRSGGTTYYADSVKGRFTISRDNAKNTVYLQMNSLKPEDTAVYYCAKASRYWSLYYWGQGTQVTVSS", "polyreactivity (PSR sort gate)": "high polyreactivity"}, {"sequence": "QVQLVESGGGLVQAGGSLRLSCAASGLTFYYYTMGWYRQAPGKERELVAAIDNGGGTNYADSVKGRFTISRDNAKNTVYLQMNSLKPEDTAVYYCAADRSYYIIIGYDLFAYYYWGQGTQVTVSS", "polyreactivity (PSR sort gate)": "low polyreactivity"}, {"sequence": "QVQLVESGGGLVQAGGSLRLSCAASGLTFYYYVMGWYRQAPGKERELVAAISYSGGRTYYADSVKGRFTISRDNAKNTVYFQMNSLKPEDTEVYYCAAQSRYGGKFYYWGQGTQVTVSS", "polyreactivity (PSR sort gate)": "high polyreactivity"}, {"sequence": "QVQLVESGGGLVQAGGSLRLSCAASGLTIFVYAMGWYRQAPGKERELVAAISDSGGSTYYADSVKGRFTISRDNAKNTVYLQMNSLKPEDSAVYYCAGNSSTYPSDDSYDYWGQGTQVTVSS", "polyreactivity (PSR sort gate)": "low polyreactivity"}, {"sequence": "QVQLVESGGGLVQAGGSLRLSCAASGLTINYYAMGLYRQAPGKERELVAAITWRGGSTYYADSVKGRFTISRDNAKNTVYLQMNSLKPEDTAVYYCAADPGPYGYYYWGQGTQVTVSS", "polyreactivity (PSR sort gate)": "low polyreactivity"}, {"sequence": "QVQLVESGGGLVQAGGSLRLSCAASGLTIRRYVMGWYRQAPGKERELVAAINWNGGSTYYADSVKGRFTISRDNAKNTVYLQMNSLKPEDTAVYYCAARSTYVYDYNYWGQGTQVTVSS", "polyreactivity (PSR sort gate)": "high polyreactivity"}, {"sequence": "QVQLVESGGGLVQAGGSLRLSCAASGLTISRYAMGWYRQAPGKERELVAAITSIGGSTYYADSVKGRFTISRDNAKNTVYLQMNSLKPVDTAVYYCACLRCLFPGRFDYWGQSTQVTVSS", "polyreactivity (PSR sort gate)": "high polyreactivity"}, {"sequence": "QVQLVESGGGLVQAGGSLRLSCAASGLTITYNAMGWYRQAPGKERELVAAISWSGDSTYADSVKGRFTISRDNAKNTVYLQKNSLKPEDTAVYYCAVPKYYYYVSRFNYWGQGTQVTVSS", "polyreactivity (PSR sort gate)": "high polyreactivity"}, {"sequence": "QVQLVESGGGLVQAGGSLRLSCAASGLTIWRYAMGWYIQAPGKERDLLAAISRSGIRTYYADSVKGRFTISRDTAKITVYLQMNSLKPEDTAVYYCAADSNAYITGRDYWGQVTQVTVSS", "polyreactivity (PSR sort gate)": "high polyreactivity"}, {"sequence": "QVQLVESGGGLVQAGGSLRLSCAASGLTLAPYAMGWYRQAPGKERELVAAITFSGGSTYYADSVKGRFTISRDNAKNTVYLQMNSLKPEDTAVYYCARDTWAYKNGYPYYSWGQRTQVTVSS", "polyreactivity (PSR sort gate)": "low polyreactivity"}, {"sequence": "QVQLVESGGGLVQAGGSLRLSCAASGLTLGRNAMGWYRQAPGKERELVAAISYGGGSTYYADSVKGRFTISRDNAKNTVYLQMNCLKPEDTAVYYCAADGWRTYGYYEYDYWGQGTQVTVSS", "polyreactivity (PSR sort gate)": "low polyreactivity"}, {"sequence": "QVQLVESGGGLVQAGGSLRLSCAASGLTLIRYAMGWYRQAPGKERELVAAISWSGGSTYYADSVKGRFTISRDNAKNTVYLQMNSLKPEDTAVYYCNTVYRYPDEYDYWGQGTQVTVSS", "polyreactivity (PSR sort gate)": "high polyreactivity"}, {"sequence": "QVQLVESGGGLVQAGGSLRLSCAASGLTLTGYAMGWYRQAPGKERELVAAISQDGGNTYYADSVKGRFTISRDNAKNTVYLQMNSLKREDTAVYYCAAVGRAKYYYWGQGTQVTVSS", "polyreactivity (PSR sort gate)": "low polyreactivity"}, {"sequence": "QVQLVESGGGLVQAGGSLRLSCAASGLTLTHYAMGWYRQAPGKERELVAAISSSGGRTYYADSVKGRFTISRDNAKNTVYLQMNSLKPEDTAVYYCAARVIASRGRYGYWGQGTQVTVSS", "polyreactivity (PSR sort gate)": "high polyreactivity"}, {"sequence": "QVQLVESGGGLVQAGGSLRLSCAASGLTQYKNGMGWYRQAPGKERELVAVISRSGGRTYYADSVKGRFTISRDNAKNTVYLQMNSLKPEDTAVYYCAARQYGPRYTYYYWGQGTQVTVSS", "polyreactivity (PSR sort gate)": "high polyreactivity"}, {"sequence": "QVQLVESGGGLVQAGGSLRLSCAASGLTSRPYVMGWYRQAPGKERDLVAAISQTGGRTYYADSVKGRFTISRDNAKNTVYLQMNSLKPEDTAVYDCAAKYSNGSGFDYWGQGTQVTVSS", "polyreactivity (PSR sort gate)": "high polyreactivity"}, {"sequence": "QVQLVESGGGLVQAGGSLRLSCAASGLTSVTYAMGWYRQAPGKERELVAAITSRAGSTYYADSVKGRFTISRDNAKNTVYLQMNSLKPEDTAVYYCAKDIIRKVYAGYVGRYDYWGQGTQVTVSS", "polyreactivity (PSR sort gate)": "low polyreactivity"}, {"sequence": "QVQLVESGGGLVQAGGSLRLSCAASGLTSYDYGMGWYRPAPGIERELVAAITWSGGSTYYADSVKGRFTISRDNAKNTVYLQMNSLKPEDTAVYYCAADTWGYGWYGYWGHGTQVTVSS", "polyreactivity (PSR sort gate)": "low polyreactivity"}, {"sequence": "QVQLVESGGGLVQAGGSLRLSCAASGLTVNRYALGWYRQAPGKERELVASIRWSGGSTYYADSVKGRFTISRDNAKNTVYLQMNSLKPEDTAVYYCAKSIASAAYDSWGQGTQVTVSS", "polyreactivity (PSR sort gate)": "low polyreactivity"}, {"sequence": "QVQLVESGGGLVQAGGSLRLSCAASGLTVYYYAMGWYRQAPGKERELVASISRSGGSTYYADSVKGSFTISRDNAKNTVYLQMNSLKPEDTAVYYCNVSVYRCTVKGTFDMDHWGQGTQVTVSW", "polyreactivity (PSR sort gate)": "high polyreactivity"}, {"sequence": "QVQLVESGGGLVQAGGSLRLSCAASGLTYAYNAMGGSRQAPGKERELVAAISKRGGSTYYADSVKGRFTISRDNAKNTVYLQMNSLKPEDTAVYYCAAGTYAIHDYWGLGTQVTVSS", "polyreactivity (PSR sort gate)": "high polyreactivity"}, {"sequence": "QVQLVESGGGLVQAGGSLRLSCAASGLTYSNAMGWYRQAPVKERELVAAISWRGGRTYYADSVKGRFTISRDNAKNTVYLQMNSLKPEDTAVYYCAKYAHGHKWYGYWGQGTQVTVSS", "polyreactivity (PSR sort gate)": "low polyreactivity"}, {"sequence": "QVQLVESGGGLVQAGGSLRLSCAASGMIFKFYDMGWYRQAPGKEREWVASISWSGGRTYYADSVKGRFTISRDNAKNTVYLQMNSLKPEDTAVYYCAAGRYYGYGYWGQGTQVTVSS", "polyreactivity (PSR sort gate)": "high polyreactivity"}, {"sequence": "QVQLVESGGGLVQAGGSLRLSCAASGMTFDYYAMGWYRQAPGKERELVAAIRSGGSTNYADSVKGRFTISRDNAKNTVYLQMNSLKPEDTAVYYCAAVRYFPWYDYWGQGTQVTVSS", "polyreactivity (PSR sort gate)": "high polyreactivity"}, {"sequence": "QVQLVESGGGLVQAGGSLRLSCAASGMTFTKNVMGWYRQAPGKEWELVAVISRSGGSTYYADSVKGRFTISRDNAKNTVYLQMNSLKPEDTAVYYCTVKGPGPSRGNYWGQVTQVTVSS", "polyreactivity (PSR sort gate)": "low polyreactivity"}, {"sequence": "QVQLVESGGGLVQAGGSLRLSCAASGMTFTSNVLGWYRQAHGKERELVAAISSGGSTYDADSVKGRFTMSRDNAKNTVYLQMNSLKPEDTAVYYCNSKLWGQYDYWGQGTQVTVSS", "polyreactivity (PSR sort gate)": "low polyreactivity"}, {"sequence": "QVQLVESGGGLVQAGGSLRLSCAASGMTFWSYAMGWYRQAPGKDRELVAAITIGGTTYYADSVKGRFTISRDNAKNTVYLQMNSLKPEDTAVYYCAVDSTDQAPPTYDYWGQGTQVTVSS", "polyreactivity (PSR sort gate)": "low polyreactivity"}, {"sequence": "QVQLVESGGGLVQAGGSLRLSCAASGMTLGSYAMGWDRQAPGKERELVAAISRRSGRTYYADSVKGRFTISRDNAKNTVYLKMNSLKPEDTAVFYCNRGYTAQVYTEFDDWGQGTQVTVSS", "polyreactivity (PSR sort gate)": "low polyreactivity"}, {"sequence": "QVQLVESGGGLVQAGGSLRLSCAASGNIFADYVMGWYRQAPGKERELVAAIDKSGGRTYYADSVKGRFTISRDNEKNNVYLQMNILKPEDTAVYYCSAYDRYRRMDYWGQGTQVTVSS", "polyreactivity (PSR sort gate)": "high polyreactivity"}, {"sequence": "QVQLVESGGGLVQAGGSLRLSCAASGNIFAFYAMGWYRQAPGKERELVADISWSGASTYYADSVKGRFTISRDNAKNTVYLQMNSLKPEDTAVYYCAAYATYYVIFYGDEYWGQGTQVTVSS", "polyreactivity (PSR sort gate)": "high polyreactivity"}, {"sequence": "QVQLVESGGGLVQAGGSLRLSCAASGNIFAINAMGWYRQAPGKERELVAAITWSSARTYYADSVKGRFTISRDNAKNTVYLQMNSLKPEDTAVYYCNAPALFEYDYWGQGTQVTVSS", "polyreactivity (PSR sort gate)": "high polyreactivity"}, {"sequence": "QVQLVESGGGLVQAGGSLRLSCAASGNIFAWYAMGWYRQAPGKERELVADISSRGGSTYYADSVKGRFTISRDNAKNTVYLQMNSLKPEDTAVYYCAAVWYWTQDYDYWGRGTQVTVSS", "polyreactivity (PSR sort gate)": "low polyreactivity"}]}]}
